Reference: patent US12016898B2, “Compositions and uses of antimicrobial materials with tissue-compatible properties” (Amicrobe, Inc., priority 2012, dated 2024)

How the values were obtained:
[1] = texture analysis profile (firmness, work of adhesion); assay type: physicochemical; conditions: 1% (w/w) polypeptide and 1% (w/w) HEC in water
From the text: FIGS. 20A and 20B show A) firmness values for mixtures of 1% solutions of synthetic cationic polypeptides with 1% hydroxyethyl cellulose (HEC, Natrosol HHX) in water (FIG. 20A); and B) work of adhesion values for mixtures of 1% solutions of copolypeptides with 1% hydroxyethyl cellulose (HEC, Natrosol HHX) in water (FIG. 20B).
Values for 1% (w/w) polypeptide in water. b. Values for 1% polypeptide/1% HEC (w/w) in water. c. Interaction parameter: ΔF=Fmix(poly/HEC)−(Fpoly+FHEC). Where Fmix(poly/HEC)=firmness of 1% polypeptide/1% HEC, Fpoly=firmness of 1% polypeptide solution, and FHEC=firmness of 1% HEC (Natrosol HHX) in water. Similar treatment of data was performed for the work of adhesion interaction parameter.
A texture analysis profile has been used to determine the effects of block copolypeptide composition and hydrophobic enantiopurity on the mechanical properties of the block copolypeptide/HEC mixtures (FIGS. 20A and 20B). […] This corresponds to an interaction parameter value of 14.45 mN and an overall increase of over 170% over what would be expected from the additive contributions of the individual components. […] Hydrophobic block length was also shown to be influential.

P. aeruginosa biofilms = experiment: in vitro P. aeruginosa biofilm assay; assay type: cell-based; conditions: 0.1-20 mg/mL, 24 hour contact time
[2] = system: S. epidermidis, P. aeruginosa (pig clinical isolate); experiment: open-wound porcine treatment model; assay type: in vivo; conditions: wounds contaminated, treated after 2 hrs, biopsied 4 hrs after treatment
Protocol: Each wound was contaminated with bacteria (S. epidermidis, P. aeruginosa (pig clinical isolate)). After 2 hrs, wounds were rinsed with saline and treated with 5 mL of test article or water. Test articles: K100(rac-L)20 (SEQ ID NO: 12) at 10, 2, 0.4 mg/mL, 10 mg/mL K100(rac-L)20 (SEQ ID NO: 12) and 30 mg/mL PEG 400 in water, and deionized water as a control. Gauze soaked in test article or water was placed on top of the wounds. Wounds were biopsied at 4 hrs after treatment.
Aqueous compositions that include mixtures of synthetic cationic polypeptides with two different polymers (polyethylene glycol 400 and hydroxyethyl cellulose) were both found to be effective in vivo. As depicted in FIG. 25, K100(rac-L)20 (SEQ ID NO: 12) was effective in an porcine open-wound treatment model alone and in combination with PEG 400. […] The aqueous compositions described herein can be used for any one or more treatments and/or applications, including but not limited to prevention of infections, treatment of infections, treatment for topical anti-infection, treatment for microbial decolonization, wound treatment, surgical site treatment, trauma treatment, burn treatment, treatment of diabetic foot ulcers, eye treatment, treatment of vaginal infections, treatment of urinary tract infections, hand sanitization, for coating prosthetic devices and/or implants, food preservation and solution preservation.

B1: K100: lysine homopolypeptide (peptide)
chain: KKKKKKKKKKKKKKKKKKKKKKKKKKKKKKKKKKKKKKKKKKKKKKKKKKKKKKKKKKKKKKKKKKKKKKKKKKKKKKKKKKKKKKKKKKKKKKKKKKKK
modifications: K100
notes: lysine homopolypeptide
effect on adhesiveness / work of adhesion of mixing polypeptide with HEC [1]: failed to enhance | effect on firmness of mixing polypeptide with HEC [1]: failed to enhance

B2: K100(rac-L)20: synthetic cationic copolypeptide: lysine segment and shorter racemic hydrophobic leucine block (peptide)
chain: KKKKKKKKKKKKKKKKKKKKKKKKKKKKKKKKKKKKKKKKKKKKKKKKKKKKKKKKKKKKKKKKKKKKKKKKKKKKKKKKKKKKKKKKKKKKKKKKKKKKLLLLLLLLLLLLLLLLLLLL
modifications: racemic leucine block; K100(rac-L)20; rac-L (101)..(120)
effectiveness against P. aeruginosa biofilms in vitro (P. aeruginosa biofilms): effective | effect on adhesiveness / work of adhesion of mixing polypeptide with HEC [1]: no effect | effect on firmness of mixing polypeptide with HEC [1]: no effect | effectiveness in porcine open-wound treatment model [2]: effective

B3: K100L20: synthetic cationic copolypeptide: lysine segment and leucine segment (peptide)
chain: KKKKKKKKKKKKKKKKKKKKKKKKKKKKKKKKKKKKKKKKKKKKKKKKKKKKKKKKKKKKKKKKKKKKKKKKKKKKKKKKKKKKKKKKKKKKKKKKKKKKLLLLLLLLLLLLLLLLLLLL
modifications: K100L20
effect on adhesiveness / work of adhesion of mixing polypeptide with HEC [1]: antagonistic | effect on firmness of mixing polypeptide with HEC [1]: increased firmness
